In publication PMC7794784, “A Very Bright Far-Red Bioluminescence Emitting Combination Based on Engineered Railroad Worm Luciferase and 6′-Amino-Analogs for Bioimaging Purposes” (International Journal of Molecular Sciences, 2020) one finds Km data, which are given here for two proteins.

Substrate in data set [1]: Nc1ncnc2c1ncn2[C@@H]1O[C@H](COP(=O)(O)OP(=O)(O)OP(=O)(O)O)[C@@H](O)[C@H]1O
Nature of the data set: purified protein. As to conditions: co-substrate D-luciferin, 4 mM MgSO4, 0.10 M Tris-HCl pH 8.0, 22 °C.

Substrate in data set [2]: O=C(O)[C@H]1CSC(c2nc3ccc(O)cc3s2)=N1
Kind of data set: bioluminescence peak intensity (I0), Lineweaver-Burk. It counts as biochemical, Phrixothrix hirtus. Particulars: 2 mM ATP, 4 mM MgSO4, 0.10 M Tris-HCl pH 8.0, 22 °C, kcat in relative luminometer counts.

Substrate in data set [3]: O=C(O)[C@H]1CSC(c2nc3ccc(N4CCCC4)cc3s2)=N1
The data set is described as above. It counts as biochemical, Phrixothrix hirtus. As to conditions: 2 mM ATP, 4 mM MgSO4, 0.10 M Tris-HCl pH 8.0, 22 °C, kcat in relative luminometer counts.

Changes are numbered by the printed parent chain. In names and notes the source's numbering stands.

B1: PxRE luciferase (P. hirtus red-emitting luciferase, RE WT) (Phrixothrix hirtus) (protein)
chain: MEEENIVNGDRPRDLVFPGTAGLQLYQSLYKYSYITDGIIDAHTNEVISYAQIFETSCRLAVSLEKYGLDHNNVVAICSENNIHFFGPLIAALYQGIPMATSNDMYTEREMIGHLNISKPCLMFCSKKSLPFILKVQKHLDFLKKVIVIDSMYDINGVECVFSFVSRYTDHAFDPVKFNPKEFDPLERTALIMTSSGTTGLPKGVVISHRSITIRFVHSSDPIYGTRIAPDTSILAIAPFHHAFGLFTALAYFPVGLKIVMVKKFEGEFFLKTIQNYKIASIVVPPPIMVYLAKSPLVDEYNLSSLTEIACGGSPLGRDIADKVAKRLKVHGILQGYGLTETCSALILSPNDRELKKGAIGTPMPYVQVKVIDINTGKALGPREKGEICFKSQMLMKGYHNNPQATRDALDKDGWLHTGDLGYYDEDRFIYVVDRLKELIKYKGYQVAPAELENLLLQHPNISDAGVIGIPDEFAGQLPSACVVLEPGKTMTEKEVQDYIAELVTTTKHLRGGVVFIDSIPKGPTGKLMRNELRAIFAREQAKSKL
Regarding B1, the Km in data set [1] came out at 230 µM; in data set [2], 7 µM; in data set [3], 0.5 µM.

B2: PxRE luciferase (P. hirtus red-emitting luciferase, RE WT) (Phrixothrix hirtus; R215K) (protein)
chain: B1 chain with R215K
For the protein B2, the Km was 50 µM in data set [1], 40 µM in data set [2] and 1.0 µM in data set [3].
